These results are taken from patent publication US20250042992A1 (University of California, published 2025).

Experiment [1] deals with human DLK1 long form (isoform 1, DLK1-FL) fused to mGFP, overexpressed on HEK293T cells (human) (UniProt P80370). Nature of the experiment: direct flow cytometry, AF647-labelled control antibody at 20ug/ml, cells HEK293T DLK1 mGFP G06 (long form); same antibody on HEK293T parental 21,331.00. (Flow cytometry measures light scatter and fluorescence of single cells or particles in a stream.)

In experiment [2] the target is human-mouse chimeric DLK1 HM2-mGFP on HEK293T cells (region 2 of human DLK1 long form replaced with mouse). Put plainly: direct flow cytometry, control antibody at 20ug/ml, cells 835 HEK293T DLK1HM2-mGFP; no ab 1,251.00; same antibody on HEK293T parental 4,432.00.
Experiment [3] addresses human-mouse chimeric DLK1 HM4-mGFP on HEK293T cells (region 4 of human DLK1 long form replaced with mouse). Put plainly: direct flow cytometry, control antibody at 20ug/ml, cells 837 HEK293T DLK1HM4-mGFP; no ab 1,516.00; same antibody on HEK293T parental 4,432.00.
Experiment [4] deals with human DLK1 long form (isoform 1, DLK1-FL) fused to mGFP, overexpressed on HEK293T cells (human) (UniProt P80370). Put plainly: direct flow cytometry, control antibody at 20ug/ml, cells HEK293T DLK1 mGFP G06 (long form); no ab 1,649.00; same antibody on HEK293T parental 4,432.00.
Experiment [5] concerns the target human-mouse chimeric DLK1 HM3-mGFP on HEK293T cells (region 3 of human DLK1 long form replaced with mouse). Put plainly: direct flow cytometry, control antibody at 20ug/ml, cells 836 HEK293T DLK1HM3-mGFP; no ab 1,657.50; same antibody on HEK293T parental 4,432.00.
Experiment [6] has as its target human DLK1 long form (isoform 1, DLK1-FL) fused to mGFP, overexpressed on HEK293T cells (human) (UniProt P80370). Nature of the experiment: indirect flow cytometry, 1° control antibody at 4ug/ml detected with an AF-647 secondary antibody, cells HEK293T DLK1 mGFP G06 (long form); same antibody on HEK293T parental 3,130.00.
Experiment [7] addresses human-mouse chimeric DLK1 HM6-mGFP on HEK293T cells (region 6 of human DLK1 long form replaced with mouse). Put plainly: direct flow cytometry, control antibody at 20ug/ml, cells 851 HEK293T DLK1 HM6-mGFP; no ab 1,992.00; same antibody on HEK293T parental 4,432.00.
Experiment [8] addresses human-mouse chimeric DLK1 HM1-mGFP on HEK293T cells (region 1 of human DLK1 long form replaced with mouse). Put plainly: direct flow cytometry, control antibody at 20ug/ml, cells 834 HEK293T DLK1HM1-mGFP; no ab 1,385.00; same antibody on HEK293T parental 4,432.00.
Experiment [9] concerns the target human DLK1 short form (isoform 2, DLK1-MB) fused to mGFP, expressed on HEK293T cells (human) (UniProt P80370). Put plainly: indirect flow cytometry, 1° control antibody at 4ug/ml detected with an AF-647 secondary antibody, cells 832-HEK293T DLK1 Iso2-mGFP mass pop (short form); same antibody on HEK293T parental 3,130.00.
Experiment [10] concerns the target human-mouse chimeric DLK1 HM8-mGFP on HEK293T cells (region 8 of human DLK1 long form replaced with mouse). Put plainly: direct flow cytometry, control antibody at 20ug/ml, cells 849 HEK293T DLK1 HM8-mGFP; no ab 1,653.50; same antibody on HEK293T parental 4,432.00.
For experiment [11], the target named is human-mouse chimeric DLK1 HM5-mGFP on HEK293T cells (region 5 of human DLK1 long form replaced with mouse). Nature of the experiment: direct flow cytometry, control antibody at 20ug/ml, cells 850 HEK293T DLK1 HM5-mGFP; no ab 1,807.00; same antibody on HEK293T parental 4,432.00.
Experiment [12] deals with human DLK1 short form (isoform 2, DLK1-MB) fused to mGFP, expressed on HEK293T cells (human) (UniProt P80370). Nature of the experiment: direct flow cytometry, AF647-labelled control antibody at 20ug/ml, cells 832-HEK293T DLK1 Iso2-mGFP mass pop (short form); same antibody on HEK293T parental 21,331.00.
Experiment [13] concerns the target human-mouse chimeric DLK1 HM7-mGFP on HEK293T cells (region 7 of human DLK1 long form replaced with mouse). Put plainly: direct flow cytometry, control antibody at 20ug/ml, cells 848 HEK293T DLK1 HM7-mGFP; no ab 1,583.50; same antibody on HEK293T parental 4,432.00.
The target in experiment [14] is human DLK1 short form (isoform 2, DLK1-MB) fused to mGFP, expressed on HEK293T cells (human) (UniProt P80370). Nature of the experiment: indirect flow cytometry, 1° antibody at 4ug/ml detected with an AF-647 secondary antibody, cells 832-HEK293T DLK1 Iso2-mGFP mass pop (short form); same antibody on HEK293T parental 2,827.00; hIgG1 on the same cells 2,895.00.
The target in experiment [15] is DLK1 ECD-mFc long form (human DLK1-FL, isoform 1) (human) (UniProt P80370). Put plainly: ELISA, plate coated with long form of DLK1 ECD-mFc (isoform 1), anti-human IgG Fc-HRP, OD450nm. For orientation: An ELISA detects its analyte on a solid surface through an enzyme-linked reagent.
Experiment [16] deals with human DLK1 long form (isoform 1, DLK1-FL) fused to mGFP, overexpressed on HEK293T cells (human) (UniProt P80370). Nature of the experiment: direct flow cytometry, AF647-labelled antibody at 20ug/ml, cells HEK293T DLK1 mGFP G06 (long form); same antibody on HEK293T parental 17,562.00.
Experiment [17] concerns the target DLK1 ECD-mFc long form (human DLK1-FL, isoform 1) (human) (UniProt P80370). Put plainly: ELISA, plate coated with DLK1 ECD-mFc long form, anti-human IgG Fc-HRP detection.
The target in experiment [18] is human DLK1 short form (isoform 2, DLK1-MB) fused to mGFP, expressed on HEK293T cells (human) (UniProt P80370). Put plainly: direct flow cytometry, AF647-labelled antibody at 20ug/ml, cells 832-HEK293T DLK1 Iso2-mGFP mass pop (short form); same antibody on HEK293T parental 17,562.00; hIgG1-AF647 on the same cells 29,714.00.
Experiment [19] has as its target human DLK1 long form (isoform 1, DLK1-FL) fused to mGFP, overexpressed on HEK293T cells (human) (UniProt P80370). Nature of the experiment: indirect flow cytometry, 1° antibody at 4ug/ml detected with an AF-647 secondary antibody, cells HEK293T DLK1 mGFP G06 (long form); same antibody on HEK293T parental 2,827.00.
Experiment [20] concerns the target human DLK1 endogenously expressed on COR-L279 small cell lung carcinoma cells (human) (UniProt P80370). Nature of the experiment: flow cytometry, (His)6-tagged scFv detected with AF647-anti-His tag 2° Ab, CORL279 (DLK1+) cells; same scFv on M202 (DLK1-) 8,072.00; 2° Ab only on CORL279 63,034.00; no ab 4,394.00.
Experiment [21] shares this target. Put plainly: flow cytometry, (His)6-tagged scFv detected with AF647-anti-His tag 2° Ab, CORL279 (DLK1+) cells; same scFv on M202 (DLK1-) 11,680.00; 2° Ab only on CORL279 63,034.00; no ab 4,394.00.
Experiment [22] has the same target. Nature of the experiment: flow cytometry, (His)6-tagged scFv detected with AF647-anti-His tag 2° Ab, CORL279 (DLK1+) cells; same scFv on M202 (DLK1-) 9,460.00; 2° Ab only on CORL279 63,034.00; no ab 4,394.00.
For experiment [23] the target is unchanged. Nature of the experiment: flow cytometry, ADC at 20µg/ml, row CORL-279 (SCLC, DLK+); row M202 of the same block: 4,385.0.

Sequence of human DLK1 long form (isoform 1, DLK1-FL) fused to mGFP, overexpressed on HEK293T cells (human) (P80370 24-383): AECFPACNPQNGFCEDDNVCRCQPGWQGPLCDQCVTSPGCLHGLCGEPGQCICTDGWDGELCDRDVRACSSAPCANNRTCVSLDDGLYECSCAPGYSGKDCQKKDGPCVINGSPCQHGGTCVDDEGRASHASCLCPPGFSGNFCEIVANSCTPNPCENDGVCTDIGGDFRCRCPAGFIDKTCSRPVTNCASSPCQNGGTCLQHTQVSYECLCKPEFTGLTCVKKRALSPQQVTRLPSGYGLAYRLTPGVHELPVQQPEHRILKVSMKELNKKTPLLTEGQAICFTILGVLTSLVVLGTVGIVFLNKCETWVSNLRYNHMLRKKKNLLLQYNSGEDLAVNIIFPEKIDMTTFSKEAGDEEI
Sequence of human DLK1 short form (isoform 2, DLK1-MB) fused to mGFP, expressed on HEK293T cells (human) (P80370 other isoform, or with tags, fused parts or gaps): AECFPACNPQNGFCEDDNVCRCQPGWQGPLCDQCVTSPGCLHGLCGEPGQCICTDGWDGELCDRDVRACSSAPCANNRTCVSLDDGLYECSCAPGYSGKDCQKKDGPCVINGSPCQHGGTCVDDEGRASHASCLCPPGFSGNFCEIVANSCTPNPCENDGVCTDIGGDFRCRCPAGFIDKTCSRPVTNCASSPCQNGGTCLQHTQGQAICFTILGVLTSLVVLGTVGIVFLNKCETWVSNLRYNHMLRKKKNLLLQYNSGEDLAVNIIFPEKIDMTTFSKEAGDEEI
Sequence of DLK1 ECD-mFc long form (human DLK1-FL, isoform 1) (human) (P80370 24-303): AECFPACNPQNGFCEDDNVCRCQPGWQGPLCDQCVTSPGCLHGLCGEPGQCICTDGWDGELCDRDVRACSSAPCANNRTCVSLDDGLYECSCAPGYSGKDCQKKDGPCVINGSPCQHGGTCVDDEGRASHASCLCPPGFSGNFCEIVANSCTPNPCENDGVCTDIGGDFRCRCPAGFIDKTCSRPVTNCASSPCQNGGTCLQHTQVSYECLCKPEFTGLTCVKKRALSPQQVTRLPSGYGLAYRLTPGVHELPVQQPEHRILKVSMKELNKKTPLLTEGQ
Sequence of human-mouse chimeric DLK1 HM8-mGFP on HEK293T cells (region 8 of human DLK1 long form replaced with mouse) (chain, as listed by the source mutant limits assumed, form in doubt): as the sequence (P80370 24-383) above, with A93T, Y96F, K103H, D105A, T120A, R127Q counted along it
Sequence of human-mouse chimeric DLK1 HM5-mGFP on HEK293T cells (region 5 of human DLK1 long form replaced with mouse) (chain, as listed by the source mutant limits assumed, form in doubt): as the sequence (P80370 24-383) above, with F4D, A6P, N8D, N11Y, D16A, Q23H, P24V, Q27E counted along it

Consider “non-targeting human IgG1 negative control antibody”, for which the FL4H/AF-647 signal in experiment [1] worked out at 47900; in [2], 8510; in [3], 8480; in experiment [4], 9870; in [5] it was 8770; in [6], 4120. The FL4H/AF-647 signal in experiment [7] worked out at 6460; in experiment [8], 8760; in experiment [9], 2900; in [10], 4360; in experiment [11], 7660; in experiment [12] it was 29700. In addition, in experiment [13], the FL4H/AF-647 signal worked out at 5270.

B1: LegoChem 18A5 benchmark anti-DLK1 antibody (antibody, from another filing, V domains shown)
VH: QVQLVQSGGAVVQPGHSLRLSCEASGFKFKDYGMHWVRQAPGKGLEWLAVISHDGRNKNYADSVKGRLTISRDNSKNTLSFQMNSLRAEDTAVYYCVRDWSYAFDIWGQGTLVTVSS
VL: DIQMTQSPSFLSASVGDRVNITCRASQDISRRLAWYQQKPGKAPKLLIYGAASLQSAVASRFSGSGSGTEFTLTISSLQPEDFANYYCQQIYTTPLTFGGGTKVEIK
As for B1, the FL4H/AF-647 signal in experiment [14] was 3350; in experiment [16], 153000; in experiment [18], 43500; in experiment [19], 20400. Moreover, the EC50 in experiment [15] and in experiment [17] was 17.9 nM in each case.

B2: 04-0562-h10scfv, single chain Fv of 04-0562-h10 DLK1 antibody, with C-terminal (His)6 tag (scFv)
scFv: DIVMTQSPLSLPVTPGEPASISCRSSQSLVHINGNTYLHWYLQKPGQSPQLLIYKVSNRFSGVPDRFSGSGSGTDFTLKISRVEAEDVGVYYCSQTTHVPWTFGQGTKLEIKGGGGSGGGGSGGGGSQVQLQESGPGLVKPSETLSLTCTVSGFSLTSYGVSWVRQPPGKGLEWIGVIWGDGSTSYNPSLKSRVTISKDTSKNQVSLKLSSVTAADTAVYYCAKPDGPLGQGTLVTVSSHHHHHH
In the case of B2, the average AF-647 fluorescence (FL4-H) in experiment [20] is 622000.

B3: 04-0561-F1scfv, single chain Fv of 04-0561-F1 DLK1 antibody, with C-terminal (His)6 tag (scFv)
scFv: DIVMTQSPDSLAVSLGERVTMNCKSSQSLLQSSNQKNYLAWYQQKPGQPPKLLVYFASTRESGVPDRFSGSGSGTDFTLTISSVQAEDVAVYYCQQHYSIPLTFGQGTKLEIKGGGGSGGGGSGGGGSQVQLQESGPGLVKPSETLSLTCTVSGFSLSIYSVHWVRQPPGKGLEWIGLIWGGGSTDYNPSLKSRVTISKDTSKNQVSLKLSSVTAADTAVYYCARKEGNYLWFAYWGQGTLVTVSSHHHHHH
B3 came in with an average AF-647 fluorescence (FL4-H) in experiment [21] of 1.43e+06.

B4: 04-0547-h2scfv, single chain Fv of 04-0547-h2 DLK1 antibody, with C-terminal (His)6 tag (scFv)
scFv: DIQMTQSPSSLSASVGDRVTITCRASHDVSTAVAWYQQKPGKAPKLLIYSASYRYTGVPSRFSGSGSGTDFTLTISSLQPEDFATYYCQQHYRIPLTFGQGTKLEIKGGGGSGGGGSGGGGSEVQLVESGGGLVQPGGSLRLSCAASGFSISDYYMAWVRQAPGKGLEWVANINYDGTNTYYADSVKGRFTISRDNSKNTLYLQMNSLRAEDTAVYYCVRSYYYYGMEYWGQGTTVTVSSHHHHHH
B4: the average AF-647 fluorescence (FL4-H) in experiment [22] stood at 763000.

B5: 04-0547-h2-MMAE-AF647 (04-0547-h2 antibody conjugated to both MMAE and Alexa Fluor 647) (antibody, IgG1, V domains shown)
VH: EVQLVESGGGLVQPGGSLRLSCAASGFSISDYYMAWVRQAPGKGLEWVANINYDGTNTYYADSVKGRFTISRDNSKNTLYLQMNSLRAEDTAVYYCVRSYYYYGMEYWGQGTTVTVSS
VL: DIQMTQSPSSLSASVGDRVTITCRASHDVSTAVAWYQQKPGKAPKLLIYSASYRYTGVPSRFSGSGSGTDFTLTISSLQPEDFATYYCQQHYRIPLTFGQGTKLEIK
modifications: MC-VC-PAB-MMAE on free thiols of cysteines (see heavy chain); MC-VC-PAB-MMAE on free thiols of cysteines (about 90% at reduced interchain disulfides, average 4 MMAE per antibody); Alexa Fluor 647 label
B5 registered an ADC Binding Activity by Flow Cytometry (20µg/ml) in experiment [23] of 225000.

The term EC50 denotes the concentration giving half of the maximal effect. A higher EC50 goes with weaker potency.
